In US20130108608:

Molecular target: T1, recombinant human full-length TrpRS with C-terminal His6 tag
T1 chain: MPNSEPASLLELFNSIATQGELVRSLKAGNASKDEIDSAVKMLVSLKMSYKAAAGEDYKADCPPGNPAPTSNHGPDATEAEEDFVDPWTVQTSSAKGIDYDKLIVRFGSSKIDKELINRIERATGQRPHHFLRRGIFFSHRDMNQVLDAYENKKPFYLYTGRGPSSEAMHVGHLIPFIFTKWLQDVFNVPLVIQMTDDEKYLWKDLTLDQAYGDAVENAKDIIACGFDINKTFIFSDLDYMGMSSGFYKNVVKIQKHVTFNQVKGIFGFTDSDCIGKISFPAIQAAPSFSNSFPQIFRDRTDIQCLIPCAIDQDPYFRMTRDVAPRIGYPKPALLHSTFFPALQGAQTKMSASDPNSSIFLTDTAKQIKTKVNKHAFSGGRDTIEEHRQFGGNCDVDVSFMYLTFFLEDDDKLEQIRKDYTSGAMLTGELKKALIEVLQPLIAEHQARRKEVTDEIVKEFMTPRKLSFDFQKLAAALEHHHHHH

B1: PMN elastase (protein)
chain: IVGGRRARPHAWPFMVSLQLRGGHFCGATLIAPNFVMSAAHCVANVNVRAVRVVLGAHNLSRREPTRQVFAVQRIFENGYDPVNLLNDIVILQLNGSATINANVQVAQLPAQGRRLGNGVQCLAMGWGLLGRNRGIASVLQELNVTVVTSLCRRSNVCTLVRGRQAGVCFGDSGSPLVCNGLIHGIASFVRGGCASGLYPDAFAPVAQFVNWIDSIIQ
cleavage of TrpRS by the protease, fragments on 12.5% SDS-PAGE: PMN elastase cleavage of a full-length TrpRS of about 53 kDa generated a major fragment of about 46 kDa (SEQ ID NO: 5, T1, having the C-terminal histidine tag, or an SY variant thereof) and a minor fragment of about 43.5 kDa
